From paper PMC7781312

Biological target: prefusion-stabilized MERS-CoV S ectodomain trimer (MERS-CoV 2P S) (MERS-CoV) (UniProt K9N5Q8)
Assay: cryo-EM structure

Sequence of prefusion-stabilized MERS-CoV S ectodomain trimer (MERS-CoV 2P S) (K9N5Q8 18-1296): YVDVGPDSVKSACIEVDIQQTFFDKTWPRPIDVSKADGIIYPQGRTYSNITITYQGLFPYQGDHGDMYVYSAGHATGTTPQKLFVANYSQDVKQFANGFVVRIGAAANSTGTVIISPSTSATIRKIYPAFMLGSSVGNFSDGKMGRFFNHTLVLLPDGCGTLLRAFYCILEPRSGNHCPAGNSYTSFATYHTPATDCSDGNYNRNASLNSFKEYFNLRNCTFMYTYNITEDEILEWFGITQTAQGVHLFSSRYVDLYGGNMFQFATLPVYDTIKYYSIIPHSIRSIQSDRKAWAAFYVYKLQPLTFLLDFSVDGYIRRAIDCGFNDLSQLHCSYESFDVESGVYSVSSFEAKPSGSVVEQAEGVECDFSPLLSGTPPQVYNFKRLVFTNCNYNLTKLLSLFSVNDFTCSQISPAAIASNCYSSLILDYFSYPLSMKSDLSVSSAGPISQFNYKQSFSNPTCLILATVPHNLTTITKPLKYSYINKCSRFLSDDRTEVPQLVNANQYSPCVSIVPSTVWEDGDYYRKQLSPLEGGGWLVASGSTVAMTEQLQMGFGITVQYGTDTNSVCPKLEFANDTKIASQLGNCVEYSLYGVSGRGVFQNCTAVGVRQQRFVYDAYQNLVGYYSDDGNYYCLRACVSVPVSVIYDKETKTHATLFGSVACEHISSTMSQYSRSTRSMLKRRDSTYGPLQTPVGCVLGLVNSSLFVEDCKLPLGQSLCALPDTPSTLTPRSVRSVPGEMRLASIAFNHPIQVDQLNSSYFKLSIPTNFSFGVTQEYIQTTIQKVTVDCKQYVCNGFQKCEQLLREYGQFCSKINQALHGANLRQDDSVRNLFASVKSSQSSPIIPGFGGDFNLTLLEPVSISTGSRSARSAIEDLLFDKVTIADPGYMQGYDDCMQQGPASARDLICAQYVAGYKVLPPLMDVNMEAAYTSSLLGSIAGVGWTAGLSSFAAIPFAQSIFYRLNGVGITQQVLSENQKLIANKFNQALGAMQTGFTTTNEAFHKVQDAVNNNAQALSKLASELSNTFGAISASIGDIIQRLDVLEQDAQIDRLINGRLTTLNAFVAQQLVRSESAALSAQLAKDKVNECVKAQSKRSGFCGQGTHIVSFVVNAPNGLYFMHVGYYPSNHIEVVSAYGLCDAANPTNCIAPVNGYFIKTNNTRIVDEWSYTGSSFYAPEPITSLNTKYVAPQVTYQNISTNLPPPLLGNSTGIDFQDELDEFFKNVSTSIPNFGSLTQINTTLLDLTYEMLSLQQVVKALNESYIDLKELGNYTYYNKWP

## prefusion-stabilized MERS-CoV S ectodomain trimer (MERS-CoV 2P S) (from UniProt K9N5Q8 18-1296) (domain or fragment)
  stoichiometry N: 3
